According to the RNAGym collection of RNA variant scans (doi:10.7554/elife.80360):

B1: Hammerhead Ribozyme (parent)
chain: ACCGGAUGUGCUUUCCGGUCUGAUGAGUCCGUGAGGACGAAACAG

Variants of: B1
Assay: self-cleavage, relative activity (ratio to wild type); higher = more cleavage; co-transcriptional
Variant ACCGUAUGUGCUUUCCGGUCUGAUGAGUCCGUGAGGAGGAAACAG [G5U C38G] has a self-cleavage of 0.349. Variant ACCGUAUGUGCUUUCCGGUCUGAUGAGUCCGUGAGGAUGAAACAG [G5U C38U] has a self-cleavage of 0.498. For ACCGUAUGUGCUUUCCGGUCUGAUGAGUCCGUGAGGAAGAAACAG [G5U C38A], the self-cleavage was 0.431. For ACCGUAUGUGCUUUCCGGUCUGGUGAGUCCGUGAGGACGAAACAG [G5U A23G], the self-cleavage was 0.287. ACCGUAUGUGCUUUCCGGUCUGUUGAGUCCGUGAGGACGAAACAG [G5U A23U] showed a self-cleavage of 0.356. For ACCGUAUGUGCUUUCCGGUCUGCUGAGUCCGUGAGGACGAAACAG [G5U A23C], the self-cleavage was 0.339. ACCGUAUGUGCUUUCGGGUCUGAUGAGUCCGUGAGGACGAAACAG [G5U C16G] gave a self-cleavage of 0.883. With ACCGUAUGUGCUUUCUGGUCUGAUGAGUCCGUGAGGACGAAACAG [G5U C16U] the self-cleavage was 0.894. ACCGUAUGUGCUUUCAGGUCUGAUGAGUCCGUGAGGACGAAACAG [G5U C16A] gave a self-cleavage of 1.11. For ACCGUAUGUGCUUUCCGAUCUGAUGAGUCCGUGAGGACGAAACAG [G5U G18A], the self-cleavage was 0.334. In the case of ACCGUAUGUGCUUUCCGCUCUGAUGAGUCCGUGAGGACGAAACAG [G5U G18C], the self-cleavage is reported as 0.33. With ACCGUAUGUGCUUUCCGUUCUGAUGAGUCCGUGAGGACGAAACAG [G5U G18U] the self-cleavage was 0.343. Variant ACCGUAUGUGCUUUCCGGUCUGAUGAGUCCGUGAGGCCGAAACAG [G5U A37C] has a self-cleavage of 0.403. ACCGUAUGUGCUUUCCGGUCUGAUGAGUCCGUGAGGUCGAAACAG [G5U A37U] showed a self-cleavage of 0.417. In the case of ACCGUAUGUGCUUUCCGGUCUGAUGAGUCCGUGAGGGCGAAACAG [G5U A37G], the self-cleavage is reported as 0.46. Work on ACCGUAUGUGCUUUCCGGUCUGAUGAGUCUGUGAGGACGAAACAG [G5U C30U] yielded a self-cleavage of 0.967. In the case of ACCGUAUGUGCUUUCCGGUCUGAUGAGUCAGUGAGGACGAAACAG [G5U C30A], the self-cleavage is reported as 0.795. In the case of ACCGUAUGUGCUUUCCGGUCUGAUGAGUCGGUGAGGACGAAACAG [G5U C30G], the self-cleavage is reported as 0.445. With ACCGUAUGUGCUUUCCGGUCUGAUGAGUCCGUGAGGACGAGACAG [G5U A41G] the self-cleavage was 0.316. Variant ACCGUAUGUGCUUUCCGGUCUGAUGAGUCCGUGAGGACGAUACAG [G5U A41U] has a self-cleavage of 0.332. With ACCGUAUGUGCUUUCCGGUCUGAUGAGUCCGUGAGGACGACACAG [G5U A41C] the self-cleavage was 0.402. In the case of ACCGCAUGUGCCUUCCGGUCUGAUGAGUCCGUGAGGACGAAACAG [G5C U12C], the self-cleavage is reported as 0.703. Work on ACCGCAUGUGCAUUCCGGUCUGAUGAGUCCGUGAGGACGAAACAG [G5C U12A] yielded a self-cleavage of 0.788. ACCGCAUGUGCGUUCCGGUCUGAUGAGUCCGUGAGGACGAAACAG [G5C U12G] gave a self-cleavage of 0.773. ACCGUAUGUGCUUUCCGGUCUGAUGAGUCCGUGCGGACGAAACAG [G5U A34C] gave a self-cleavage of 0.833. With ACCGUAUGUGCUUUCCGGUCUGAUGAGUCCGUGUGGACGAAACAG [G5U A34U] the self-cleavage was 0.83. For ACCGUAUGUGCUUUCCGGUCUGAUGAGUCCGUGGGGACGAAACAG [G5U A34G], the self-cleavage was 0.882. ACCGCAUGUGCUUUCCGGUCUGAUGAGCCCGUGAGGACGAAACAG [G5C U28C] showed a self-cleavage of 0.33. ACCGCAUGUGCUUUCCGGUCUGAUGAGACCGUGAGGACGAAACAG [G5C U28A] gave a self-cleavage of 0.376. ACCGCAUGUGCUUUCCGGUCUGAUGAGGCCGUGAGGACGAAACAG [G5C U28G] gave a self-cleavage of 0.345. Variant ACCGUAUGUGCUUUCCGGUCUGAUGAGUCCGUGAGGACCAAACAG [G5U G39C] has a self-cleavage of 0.306. Work on ACCGUAUGUGCUUUCCGGUCUGAUGAGUCCGUGAGGACUAAACAG [G5U G39U] yielded a self-cleavage of 0.33. For ACCGUAUGUGCUUUCCGGUCUGAUGAGUCCGUGAGGACAAAACAG [G5U G39A], the self-cleavage was 0.339. With ACCGUAUGUGCUUUCCGGUCUGAUGCGUCCGUGAGGACGAAACAG [G5U A26C] the self-cleavage was 0.357. ACCGUAUGUGCUUUCCGGUCUGAUGGGUCCGUGAGGACGAAACAG [G5U A26G] gave a self-cleavage of 0.332. Work on ACCGUAUGUGCUUUCCGGUCUGAUGUGUCCGUGAGGACGAAACAG [G5U A26U] yielded a self-cleavage of 0.449. In the case of ACCGUAUGUGCUUUCCGGUCUGAUGAGUCCGUGAGGACGUAACAG [G5U A40U], the self-cleavage is reported as 0.319. ACCGUAUGUGCUUUCCGGUCUGAUGAGUCCGUGAGGACGGAACAG [G5U A40G] gave a self-cleavage of 0.35. ACCGUAUGUGCUUUCCGGUCUGAUGAGUCCGUGAGGACGCAACAG [G5U A40C] showed a self-cleavage of 0.375. ACCGCAUGUGCUUUCCGGUCUGACGAGUCCGUGAGGACGAAACAG [G5C U24C] gave a self-cleavage of 0.625. With ACCGCAUGUGCUUUCCGGUCUGAGGAGUCCGUGAGGACGAAACAG [G5C U24G] the self-cleavage was 0.499. In the case of ACCGCAUGUGCUUUCCGGUCUGAAGAGUCCGUGAGGACGAAACAG [G5C U24A], the self-cleavage is reported as 0.648. Work on ACCGCAUGUGCUUCCCGGUCUGAUGAGUCCGUGAGGACGAAACAG [G5C U14C] yielded a self-cleavage of 0.429. With ACCGCAUGUGCUUACCGGUCUGAUGAGUCCGUGAGGACGAAACAG [G5C U14A] the self-cleavage was 0.845. For ACCGCAUGUGCUUGCCGGUCUGAUGAGUCCGUGAGGACGAAACAG [G5C U14G], the self-cleavage was 0.929. Variant ACCGUAUGUGCUUUCCGGUCUGAUGAGUCCGUAAGGACGAAACAG [G5U G33A] has a self-cleavage of 0.913. ACCGUAUGUGCUUUCCGGUCUGAUGAGUCCGUCAGGACGAAACAG [G5U G33C] showed a self-cleavage of 0.813. Variant ACCGUAUGUGCUUUCCGGUCUGAUGAGUCCGUUAGGACGAAACAG [G5U G33U] has a self-cleavage of 1.06. With ACCGUAUGUGCUUUCCGGUAUGAUGAGUCCGUGAGGACGAAACAG [G5U C20A] the self-cleavage was 0.292. For ACCGUAUGUGCUUUCCGGUGUGAUGAGUCCGUGAGGACGAAACAG [G5U C20G], the self-cleavage was 0.333. With ACCGUAUGUGCUUUCCGGUUUGAUGAGUCCGUGAGGACGAAACAG [G5U C20U] the self-cleavage was 0.595. Variant ACCGUAUGUCCUUUCCGGUCUGAUGAGUCCGUGAGGACGAAACAG [G5U G10C] has a self-cleavage of 0.708. With ACCGUAUGUACUUUCCGGUCUGAUGAGUCCGUGAGGACGAAACAG [G5U G10A] the self-cleavage was 1.29. Variant ACCGUAUGUUCUUUCCGGUCUGAUGAGUCCGUGAGGACGAAACAG [G5U G10U] has a self-cleavage of 1.15. For ACCGCAUGUGCUUUCCGGUCUGAUGAGUCCGCGAGGACGAAACAG [G5C U32C], the self-cleavage was 0.559. For ACCGCAUGUGCUUUCCGGUCUGAUGAGUCCGAGAGGACGAAACAG [G5C U32A], the self-cleavage was 0.549. For ACCGCAUGUGCUUUCCGGUCUGAUGAGUCCGGGAGGACGAAACAG [G5C U32G], the self-cleavage was 0.452.
